Source: the FLAb antibody collection
Numbering of substitutions follows the chain as printed. Several values for one entry are separate records, joined by “and”; a condition that tells them apart may be missing. Equal values may be shown once.

B1: unnamed (protein)
chain 1: QVQLVQSGVEVKKPGASVKVSCKASGYTFTNYYMYWVRQAPGQGLEWMGGINPSNGGTNFNEKFKNRVTLTTDSSTTTAYMELKSLQFDDTAVYYCARRDYRFDMGFDYWGQGTTVTVSS
chain 2: EIVLTQSPATLSLSPGERATLSCRASKGVSTSGYSYLHWYQQKPGQAPRLLIYLASYLESGVPARFSGSGSGTDFTLTISSLEPEDFAVYYCQHSRDLPLTFGGGTKVEIK
B2: unnamed (protein)
chain 1: QVQLQESGPGLVKPSETLSLTCTVSGGSVSSGDYYWTWIRQSPGKGLEWIGHIYYSGNTNYNPSLKSRLTISIDTSKTQFSLKLSSVTAADTAIYYCVRDRVTGAFDIWGQGTMVTVSS
chain 2: DIQMTQSPSSLSASVGDRVTITCQASQDISNYLNWYQQKPGKAPKLLIYDASNLETGVPSRFSGSGSGTDFTFTISSLQPEDIATYFCQHFDHLPLAFGGGTKVEIK
B3: unnamed (protein)
chain 1: QVTLRESGPALVKPTQTLTLTCTFSGFSLSTSGMSVGWIRQPPGKALEWLADIWWDDKKDYNPSLKSRLTISKDTSKNQVVLKVTNMDPADTATYYCARSMITNWYFDVWGAGTTVTVSS
chain 2: DIQMTQSPSTLSASVGDRVTITCKCQLSVGYMHWYQQKPGKAPKLLIYDTSKLASGVPSRFSGSGSGTEFTLTISSLQPDDFATYYCFQGSGYPFTFGGGTKLEIK
B4: unnamed (protein)
chain 1: QVQLQESGPGLVRPSQTLSLTCTASGYTFTDYVIHWVKQPPGRGLEWIGYINPYDDDTTYNQKFKGRVTMLVDTSSNTAYLRLSSVTAEDTAVYYCARRGNSYDGYFDYSMDYWGSGTPVTVSS
chain 2: DIQMTQSPSSLSASVGDRVTITCRASQNVGTAVAWLQQTPGKAPKLLIYSASNRYTGVPSRFSGSGSGTDYTFTISSLQPEDIATYYCQQYTNYPMYTFGQGTKVQIK
B5: unnamed (protein)
chain 1: EVQLVESGGGLVQPGGSLRLSCAASGYTFTSYWLHWVRQAPGKGLEWVGMIDPSNSDTRFNPNFKDRFTISADTSKNTAYLQMNSLRAEDTAVYYCATYRSYVTPLDYWGQGTLVTVSS
chain 2: DIQMTQSPSSLSASVGDRVTITCKSSQSLLYTSSQKNYLAWYQQKPGKAPKLLIYWASTRESGVPSRFSGSGSGTDFTLTISSLQPEDFATYYCQQYYAYPWTFGQGTKVEIK
B6: unnamed (protein)
chain 1: EVQLVQSGAEVKKPGESLKISCKGSGYSFTGYNMNWVRQMPGKGLEWMGNIDPYYGGTTYNRKFKGQVTISADKSISTAYLQWSSLKASDTAMYYCARSVGPFDSWGQGTLVTVSS
chain 2: EIVLTQSPATLSLSPGERATLSCRASENVYSYLAWYQQKPGQAPRLLIYFAKTLAEGIPARFSGSGSGTDFTLTISSLEPEDFAVYYCQHHSDNPWTFGQGTKVEIK
B7: unnamed (protein)
chain 1: EVQLVQSGPGLVQPGGSVRISCAASGYTFTNYGMNWVKQAPGKGLEWMGWINTYTGESTYADSFKGRFTFSLDTSASAAYLQINSLRAEDTAVYYCARFAIKGDYWGQGTLLTVSS
chain 2: DIQMTQSPSSLSASVGDRVTITCRSTKSLLHSNGITYLYWYQQKPGKAPKLLIYQMSNLASGVPSRFSSSGSGTDFTLTISSLQPEDFATYYCAQNLEIPRTFGQGTKVELK
B8: unnamed (protein)
chain 1: EVQLVQSGAEVKKPGESLKISCKGSGRTFTSYNMHWVRQMPGKGLEWMGAIYPLTGDTSYNQKSKLQVTISADKSISTAYLQWSSLKASDTAMYYCARSTYVGGDWQFDVWGKGTTVTVSS
chain 2: EIVLTQSPGTLSLSPGERATLSCRASSSVPYIHWYQQKPGQAPRLLIYATSALASGIPDRFSGSGSGTDFTLTISRLEPEDFAVYYCQQWLSNPPTFGQGTKLEIK
B9: unnamed (protein)
chain 1: EVQLVESGGGLVQPGGSLRLSCAASGYTFTSYNMHWVRQAPGKGLEWVGAIYPGNGDTSYNQKFKGRFTISVDKSKNTLYLQMNSLRAEDTAVYYCARVVYYSNSYWYFDVWGQGTLVTVSS
chain 2: DIQMTQSPSSLSASVGDRVTITCRASSSVSYMHWYQQKPGKAPKPLIYAPSNLASGVPSRFSGSGSGTDFTLTISSLQPEDFATYYCQQWSFNPPTFGQGTKVEIK
B10: unnamed (protein)
chain 1: QVQLVQSGAEVKKPGASVKVSCKASGYTFTSYWMHWVRQAPGQGLEWIGNINPSNGGTNYNEKFKSKATMTRDTSTSTAYMELSSLRSEDTAVYYCELMQGYWGQGTLVTVSS
chain 2: DIVMTQSPLSNPVTLGQPVSISCRSSKSLLYKDGKTYLNWFLQRPGQSPQLLIYLMSTRASGVPDRFSGGGSGTDFTLKISRVEAEDVGVYYCQQLVEYPLTFGQGTKLEIK
B11: unnamed (protein)
chain 1: EVKLVESGGGLVQPGGSLRLSCATSGFTFTDYYMNWVRQPPGKALEWLGFIGNKANGYTTEYSASVKGRFTISRDKSQSILYLQMNTLRAEDSATYYCTRDRGLRFYFDYWGQGTTLTVSS
chain 2: QTVLSQSPAILSASPGEKVTMTCRASSSVTYIHWYQQKPGSSPKSWIYATSNLASGVPARFSGSGSGTSYSLTISRVEAEDAATYYCQHWSSKPPTFGGGTKLEIK
B12: unnamed (protein)
chain 1: EGQLVQSGGGLVHPGGSLRLSCAGSGFTFSSYGMHWVRQAPGKGLEWVSGIGTGGGTYSTDSVKGRFTISRDNAKNSLYLQMNSLRAEDMAVYYCARGDYYGSGSFFDCWGQGTLVTVSS
chain 2: DIQMTQSPSSLSASVGDRVTITCRASQGISSWLAWYQQKPEKAPKSLIYAASSLQSGVPSRFSGSGSGTDFTLTISSLQPEDFATYYCQQYNSYPPTFGQGTKLEIK
B13: unnamed (protein)
chain 1: QVQLVQSGAEVKKPGSSVKVSCKASGYAFSYSWINWVRQAPGQGLEWMGRIFPGDGDTDYNGKFKGRVTITADKSTSTAYMELSSLRSEDTAVYYCARNVFDGYWLVYWGQGTLVTVSS
chain 2: DIVMTQTPLSLPVTPGEPASISCRSSKSLLHSNGITYLYWYLQKPGQSPQLLIYQMSNLVSGVPDRFSGSGSGTDFTLKISRVEAEDVGVYYCAQNLELPYTFGGGTKVEIK
B14: unnamed (protein)
chain 1: EVQLVESGGGLVQPGGSMRLSCVASGFPFSNYWMNWVRQAPGKGLEWVGEIRLKSNNYTTHYAESVKGRFTISRDDSKNSLYLQMNSLKTEDTAVYYCTRHYYFDYWGQGTLVTVSS
chain 2: B13 chain 2 with T7S, L11N, L38F, Y39F, V60A, K79R, Y101P, G105Q
B15: unnamed (protein)
chain 1: EVQLVESGGGLVQPGGSLRLSCAASGYTFIDYYMNWVRQAPGKGLEWVGDINLDNSGTHYNQKFKGRFTISRDKSKNTAYLQMNSLRAEDTAVYYCAREGVYHDYDDYAMDYWGQGTLVTVSS
chain 2: DIQMTQSPSSLSASVGDRVTITCRTSQSLVHINAITYLHWYQQKPGKAPKLLIYRVSNRFSGVPSRFSGSGSGTDFTLTISSLQPEDFATYYCGQSTHVPLTFGQGTKVEIK
B16: unnamed (protein)
chain 1: EVQLVESGGGLVQPGGSLRLSCAASGYTFTSYVIHWVRQAPGKGLEWVGYNNPYNAGTNYNEKFKGRFTISSDKSKNTAYLQMNSLRAEDTAVYYCSRPTMLPWFAYWGQGTLVTVSS
chain 2: DIQMTQSPSSLSASVGDRVTITCRASQAVSSAVAWYQQKPGKAPKLLIYSASHRYTGVPSRFSGSGSGTDFTLTISSLQPEDFATYYCQESYSTPWTFGQGTKVEIK
B17: unnamed (protein)
chain 1: EVQLVESGGGLVQPGGSLRLSCAASGFNFNDYFMNWVRQAPGKGLEWVAQMRNKNYQYGTYYAESLEGRFTISRDDSKNSLYLQMNSLKTEDTAVYYCARESYYGFTSYWGQGTLVTVSS
chain 2: DIQMTQSPSSLSASVGDRVTITCQASQDIGISLSWYQQKPGKAPKLLIYNANNLADGVPSRFSGSGSGTDFTLTISSLQPEDFATYYCLQHNSAPYTFGQGTKLEIK
B18: unnamed (protein)
chain 1: EVQLVESGGGLVQPGRSLRLSCAASGFTFNDYAMHWVRQAPGKGLEWVSTISWNSGSIGYADSVKGRFTISRDNAKKSLYLQMNSLRAEDTALYYCAKDIQYGNYYYGMDVWGQGTTVTVSS
chain 2: EIVLTQSPATLSLSPGERATLSCRASQSVSSYLAWYQQKPGQAPRLLIYDASNRATGIPARFSGSGSGTDFTLTISSLEPEDFAVYYCQQRSNWPITFGQGTRLEIK
B19: unnamed (protein)
chain 1: QLQLQESGPGLVKPSETLSLTCTVSGGSINSSSYYWGWLRQSPGKGLEWIGSFFYTGSTYYNPSLRSRLTISVDTSKNQFSLMLSSVTAADTAVYYCARQSTYYYGSGNYYGWFDRWDQGTLVTVSS
chain 2: B18 chain 2 with I96P, T97A, R103K, L104V

Test: patients with anti-drug antibodies; higher = more immunogenic

Protein	patients with anti-drug antibodies
B1	1.7%
B2	2.8%
B3	1.1%
B4	4.5%
B5	11.9%
B6	5%
B7	40%
B8	1%
B9	1%
B10	2.5%
B11	0.5%
B12	0%
B13	6% and 6.6%
B14	25% and 9.5%
B15	4.7%
B16	4.7%
B17	9.8%
B18	0%
B19	3.5%
